{"source": "patent US20150299797A1", "about": "“COMPOSITIONS AND METHODS RELATING TO BLOOD-BASED BIOMARKERS OF BREAST CANCER” (UNIVERSITY OF UTAH RESEARCH FOUNDATION, priority 2012, published 2015)", "molecules": {"B1": {"name": "TRAIL: TNF-related apoptosis inducing ligand (TRAIL), from Millipore (protein, UniProt P50591 1-281, looked up)", "Tumor necrosis factor ligand …": "MAMMEVQGGPSLGQTCVLIVIFTVLLQSLCVAVTYVYFTNELKQMQDKYSKSGIACFLKEDDSYWDPNDEESMNSPCWQVKWQLRQLVRKMILRTSEETISTVQEKQQNISPLVRERGPQRVAAHITGTRGRSNTLSSPNSKNEKALGRKINSWESSRSGHSFLSNLHLRNGELVIHEKGFYYIYSQTYFRFQEEIKENTKNDKQMVQYIYKYTSYPDPILLMKSARNSCWSKDAEYGLYSIYQGGIFELKENDRIFVSVTNEHLIDMDHEASFFGAFLVG"}}, "test_system": "normal mammary epithelial cells from high-risk (HBC) women or control women", "experiment": "Drug response assay (CellTiter-Glo cell viability, dose-response)", "assay_type": "cell-based, human", "conditions": "HBC/high-risk vs control, viability after 96 hours, TRAIL p-value<0.001", "experimental": "Normal mammary epithelial cells isolated from either high-risk women undergoing prophylactic mastectomy or control women with no family history of breast cancer undergoing breast-reduction surgery for non-cancer related health issues were isolated, and single-cell suspensions were generated. 1500 cells/well for each patient samples were plated in 40 microliters of MEBM basal media supplemented with a MEGM Bulletkit [Lonza] in half-well 96-well plates [Nunc] in triplicate for each drug dose. After 24 hours, TRAIL, Afatinib, Gefitinib, and EGF were added. The indicated doses were chosen within the average linear range of drug effect: TRAIL (0.1 ng/mL-5.0 ng/ml), Afatinib (10 nM-[…]), Gefitinib (0.001 mM-0.5 mM), EGF (5 ng/mL-500 ng/mL) [Millipore (TRAIL) and Selleckchem]. A BIOMEK 3000 (Beckman Coulter, Brea, Calif., USA) robot was used to seed the cells and dispense the drugs. After 96 hours, cell viability was quantified using the CellTiter-Glo Luminescent Cell Viability Assay [Promega]. The proportion of viable cells was calculated for each dosage by comparing against cell counts for non-treated cells. A summary value was calculated for each cell line as the slope of a linear-regression line fitted to the cell-count proportions.", "note": "“Also recorded” adds a separate entry of the source."}
{"molecule": "B1", "values": [{"measurement": "response of primary breast cells of HBC women compared to controls (proportion of viable cells, slope of fitted dose-response)", "value": "significantly increased response; also recorded: significantly more responsive"}]}
